Assay results reported in patent US6559124B1, “Use of prosaposin and peptides obtained therefrom for treatment of neural degeneration” (Myelos Corporation, priority 1993, dated 2003).
“And” between values parts separate entries of the source, which are not always exact repeats. Equal values may be shown once. Where no end group is shown, it is not given here.

What was measured:
[1] = system: NS20Y neuroblastoma cells; experiment: Neurite outgrowth of NS20Y neuroblastoma cells; type: cell-based; conditions: for % Neurites after 24 hours: peptide added at 5 μg/ml, None = 18%
Method: NS20Y neuroblastoma cells were grown in Dulbecco's Modified Eagle Medium (DMEM) containing 10% fetal calf serum (FCS) and 1 mM sodium pyruvate. Cells were removed with trypsin and plated in 30 mm petri dishes onto glass coverslips. After 20-24 hours the medium was replaced with DMEM containing 0.5% fetal calf serum plus effector proteins. Cells were cultured for another 24 hours, washed with phosphate buffered saline (PBS) and fixed with Bouin's solution (saturated aqueous picric acid/formalin/acetic acid 15:5:1) for 30 minutes. Fixative was removed with PBS and neurite outgrowth was scored under a phase contrast microscope. […] At least 200 cells were scored in different portions of each dish to determine the percentage of neurite bearing cells and assays were performed in duplicate.

NS20Y proteins = experiment: Incorporation of 32P into NS20Y proteins; type: cell-based; conditions: NS20Y cells; effector proteins 0.5-1.0 μg/ml, 10-15 minutes; versus controls or saposins A, B or D
Method: NS20Y cells were incubated in phosphate-free Hanks' balanced salt solution containing 2.5 μg/ml actinomycin D and 80-100 μCi/ml carrier-free [^32P]-orthophosphate (New England Nuclear) and effector proteins (0.5-1.0 μg/ml) and incubated for 10-15 minutes at room temperature. Cells were solubilized in SDS-PAGE sample buffer, analyzed by SDS-PAGE and autoradiographed.

[2] = parameters: species or system rats; conditions: rat, in vivo
Method: An 18-mer peptide consisting of amino acids 12-29 of saposin C with a tyrosine substituted for valine at position 12 was chemically synthesized on an Applied Biosystems Model 430 peptide synthesizer. The peptide was then radioiodinated by the lactoperoxidase method and 20×10^6 cpm were injected into the auricles of rats. The animals were sacrificed after one hour and 24 hours and the hearts were perfused with isotonic saline in order to remove the blood from the brain. The brain was then counted in a gamma counter in order to determine the percentage of peptide uptake. In addition, in the 24 hour experiment the brain was homogenized and separated into a capillary rich fraction (pellet) and a parenchymal brain fraction (supernatant) after dextran centrifugation (Triguero et al., (1990) J. Neurochem., 54: 1882-1888). This method allows for the discrimination between radiolabelled peptide within blood vessels and that within the brain. In the 24 hour experiment, 0.017% of the injected peptide was detected in whole brain, 75% of the label was in the parenchymal fraction and 25% was in the capillary fraction. At 1 hour 0.03% of the injected dose was present in whole brain.

[3] = system: mouse cerebellar explants; experiment: Neurite outgrowth and myelination in newborn mouse cerebellar explants; type: cell-based; conditions: prosaposin 5 μg/ml, saposins 10 μg/ml; for cells with long projections at the periphery of the explant: day 15
Method: Newborn mouse cerebellar explants were prepared according to Satomi (Zool. Sci. 9, 127-137 (1992)). Neurite outgrowth and myelination were observed over 22 days in culture, during the period when the newborn mouse cerebellum normally undergoes neuronal differentiation and myelination begins. Prosaposin (5 μg/ml) and saposins A, B and C (10 μg/ml) were added on the second day after preparation of the explants (three control and three treated explants) and outgrowth of neurites and myelination were assessed under a bright field microscope with a video camera.

[4] = system: PC12M pheochromocytoma cells; experiment: Neurite outgrowth from NGF-responsive PC12M cells; type: cell-based; conditions: high concentrations (2 mg/ml)
Description: Since nerve growth factor (NGF) acts on a variety of cell types, we wanted to determine whether it was involved in prosaposin-mediated outgrowth in neuroblastoma cells.

For “1-27: synthetic peptide from the human saposin C domain, residues 1-27 (SDVYCEVCEFLVKEVTKLIDNNKTEKE; Saposin-C; UniProt P07602 311-337, looked up, fragment)”, the “% Neurites after 24 hours” value [1] was 46%.

With “1-40: amino terminal synthetic peptide, residues 1-40 of saposin C (SDVYCEVCEFLVKEVTKLIDNNKTEKEILDAFDKMCSKLP; Saposin-C; UniProt P07602 311-350, looked up, fragment)” the “neuritogenic activity (in words)” value [1] was “active” and the “% Neurites after 24 hours” value [1] was 42%.

For “13-34: synthetic peptide from the human saposin C domain, residues 13-34 (KEVTKLIDNNKTEKEILDAFDK; Saposin-C; UniProt P07602 323-344, looked up, fragment)”, the “% Neurites after 24 hours” value [1] was 50%.

In the case of “21-48: synthetic peptide from the human saposin C domain, residues 21-48 (NNKTEKEILDAFDKMCSKLPKSLSEECQ; Saposin-C; UniProt P07602 331-358, looked up, fragment)”, the “% Neurites after 24 hours” value [1] is reported as 18%.

For “41-82: carboxy terminal synthetic peptide, residues 41-82 of saposin C (KSLSEECQEVVDTYGSSILSILLEEVSPELVCSMLHLCSGTR; Saposin-C; UniProt P07602 351-392, looked up, fragment)”, the “neuritogenic activity (in words)” value [1] was “inactive” and the “% Neurites after 24 hours” value [1] was 17%.

For CEFLVKEVTKLIDNNKTEKEIL [8-29], the “neuritogenic activity (in words)” value [1] was “neuritogenic activity”, the “extent of neurite outgrowth compared with prosaposin or saposin C” value ([1]; FIG. 1a, higher concentrations required for activity) was “greater than with prosaposin or saposin C” and the “% Neurites after 24 hours” value [1] was 56%. For the same molecule, the “phosphorylation of proteins of 148, 100, 80, 68, 50, 38 and 34 kDa (in words)” value (NS20Y proteins) was “stimulate phosphorylation”.

For “NGF: nerve growth factor, a neurotrophin [reference compound]”, the “neuritogenic activity (in words)” value [1] was “no effect on neurite outgrowth” and the “augmentation of the prosaposin neurite outgrowth response” value ([1]; 5 μg/ml NGF (FIG. 1b)) was “did not augment the prosaposin response”.

With “iodinated 18-mer: amino acids 12-29 of saposin C with tyrosine substituted for valine at position 12 (SEQ ID NO: 5), radioiodinated (YKEVTKLIDNNKTEKEIL; also: radioiodinated)” the “crossing of the blood brain barrier (in words)” value [2] was “crosses the blood brain barrier”, the “injected peptide detected in whole brain” value [2] was 0.017% and the “label in the capillary fraction of brain” value [2] was 25%. For the same molecule, the “label in the parenchymal fraction of brain” value [2] was 75% and the “neuritogenic activity (in words)” value [1] was “neuritogenic activity”.

B1: Saposin A: one of four saposins generated from prosaposin; inactive in neurite outgrowth (protein, UniProt P07602 60-142, looked up)
Saposin-A: SLPCDICKDVVTAAGDMLKDNATEEEILVYLEKTCDWLPKPNMSASCKEIVDSYLPVILDIIKGEMSRPGEVCSALNLCESLQ
modifications: Saposin-A
In the case of B1, the “neuritogenic activity (in words)” value [1] is reported as “inactive”, the “% Neurites after 24 hours” value [1] is reported as 20% and the “cells with long projections at the periphery of the explant” value (“cells with long projections” below) [3] is reported as “less prominent”.

B2: Prosaposin: 70 kilodalton glycoprotein, precursor of saposins A, B, C and D; human sequence SEQ ID NO:2 (protein)
chain: MYALFLLASLLGAALAGPVLGLKECTRGSAVWCQNVKTASDCGAVKHCLQTVWNKPTVKSLPCDICKDVVTAAGDMLKDNATEEEILVYLEKTCDWLPKPNMSASCKEIVDSYLPVILDIIKGEMSRPGEVCSALNLCESLQKHLAELNHQKQLESNKIPELDMTEVVAPFMANIPLLLYPQDGPRSKPQPKDGDVCQDCIQMVTDIQTAVRTNSTFVQALVEHVKEECDRLGPGMADICKNYISQYSEIAIQMMMHMQPKEICALVGFCDEVKEMPMQTLVPAKVASKNVIPALDLVDPIKKHEVPAKSDVYCEVCEFLVKEVTKLIDNNKTEKEILDAFDKMCSKLPKSLSEECQEVVDTYGSSILSILLEEVSPELVCSMLHLCSGTRLPALTVHVTQPKDGGFCEVCKKLVGTLDRNLEKNSTKQEILAALEKGCSFLPDPYQKQCDQFVAEYEPVLIEILVEVMDPSFVCLKIGACPSAHKPLLGTEKCIWGPSYWCQNTETAAQCNAVEHCKRHVWN
With B2 the “neuritogenic activity (in words)” value [1] was “promoted reversible neurite outgrowth”, the “lowest concentration for activity (neurite outgrowth)” value ([1]; dose-response curve FIG. 1a) was 1.4×10^−11 M and 10 ng/ml and the “time at which retraction of neurite outgrowth was complete after removal” value ([1]; prosaposin removed) was 36 h. For the same molecule, the “appearance of explant cultures on the eighth day” value ([3]; day 8) was “thinner and more spread out than control cultures”, the “cells with long projections” value [3] was “many cells with long projections” and the “phosphorylation of proteins of 148, 100, 80, 68, 50, 38 and 34 kDa (in words)” value (NS20Y proteins) was “stimulate phosphorylation”. For the same molecule, the “stimulation of neurite outgrowth from PC12M cells” value [4] was “failed to stimulate neurite outgrowth”.

B3: saposin B: one of four saposins generated from prosaposin (protein, UniProt P07602 195-273, looked up)
Saposin-B: GDVCQDCIQMVTDIQTAVRTNSTFVQALVEHVKEECDRLGPGMADICKNYISQYSEIAIQMMMHMQPKEICALVGFCDE
modifications: Saposin-B
notes: one of four saposins generated from prosaposin
For B3, the “cells with long projections” value [3] was “less prominent”.
